The text below walks through data of paper PMC4063181 (Journal of the American Chemical Society, 2014).

Residue numbers refer to the chain shown, from its start. Numbers in names are those of the source.

Data set [1] concerns the molecule itself. Briefly: cross-linking.
Data set [2] concerns the molecule itself. Briefly: solution NMR.

B1: EmrE S107C mutant devoid of wild-type Cys residues (C39S, C41S, C95S, S107C) (natural protein)
chain: MNPYIYLGGAILAEVIGTTLMKFSEGFTRLWPSVGTIISYSASFWLLAQTLAYIPTGIAYAIWSGVGIVLISLLSWGFFGQRLDLPAIIGMMLISAGVLIINLLSRCTPH
For B1, in data set [1], the stoichiometry N (usually a count of units in the complex or per binding partner) was found to be 2.

B2: EmrE (wild type) (natural protein)
chain: B1 chain with S39C, S41C, S95C, C107S
Take B2: in data set [2], the binding result is given as “binds”.
